Data on two molecules can be found in patent US20250136694A1 (HARBOUR BIOMED SHANGHAI, published 2025).

Substitutions are numbered along the chain they refer to.

For assay [1], the target named is T1, mouse B7-H4 on the cell surface (mouse, UniProt Q7TSP5 25-257).
T1 construct: whole, on cells; also called m B7-H4; CHO-K1/mB7-H4
T1 sequence (looked up): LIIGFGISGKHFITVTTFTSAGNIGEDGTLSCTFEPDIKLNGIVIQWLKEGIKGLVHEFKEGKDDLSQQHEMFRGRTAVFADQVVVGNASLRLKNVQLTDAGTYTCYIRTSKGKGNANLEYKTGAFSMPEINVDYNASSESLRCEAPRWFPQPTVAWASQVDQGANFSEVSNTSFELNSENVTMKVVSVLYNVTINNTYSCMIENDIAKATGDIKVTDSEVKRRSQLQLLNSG
Kind of assay: FACS, CHO-K1/m B7-H4 cells. In general terms: A flow cytometer gives signals particle by particle.

Assay [2] deals with T2, human B7-H4 on the cell surface (human, UniProt Q7Z7D3 25-282).
T2 construct: whole, on cells; also called hu B7-H4; CHO-K1/huB7-H4
T2 sequence (looked up): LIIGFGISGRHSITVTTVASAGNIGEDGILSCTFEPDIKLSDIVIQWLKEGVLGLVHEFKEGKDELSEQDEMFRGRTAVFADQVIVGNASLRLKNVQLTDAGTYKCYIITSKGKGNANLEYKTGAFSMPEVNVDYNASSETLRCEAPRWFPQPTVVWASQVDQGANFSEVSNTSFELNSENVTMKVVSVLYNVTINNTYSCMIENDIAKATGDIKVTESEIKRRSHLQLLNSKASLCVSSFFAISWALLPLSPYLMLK
Kind of assay: FACS, MDA-MB-468 cells. Here is the method:
(§1) Antibody binding experiments at the cellular level were performed using tumor cells endogenously expressing B7-H4 or primary T cells expressing CD3. MDA-MB-468 cells or human T cells were resuspended in PBS containing 2% BSA. The cell density was adjusted to 1×10⁶ cells/mL. The cells were seeded in a 96-well V-bottom plate (Corning, #3894) at 100 μL/well, followed by the addition of test antibodies 3-fold serially diluted at a concentration that was 2 times the final concentration, each at 100 μL/well. The cells were incubated away from light at 4° C. for 2 h. Then, the cells in each well were rinsed twice with 100 μL of pre-cooled PBS containing 2% BSA and centrifuged at 500 g at 4° C. for 5 min, and then the supernatant was discarded. […] The cells in each well were rinsed twice with 100 μL of pre-cooled PBS containing 2% BSA and centrifuged at 500 g at 4° C. for 5 min, and then the supernatant was discarded. Finally, the cells in each well were resuspended with 200 μL of pre-cooled PBS containing 2% BSA, and the fluorescence signal values were read using an ACEA Novocyte3000 flow cytometer.
The results are shown in Tables 6-1, 6-2, and 6-3 and FIGS. 5A-5F.

Assay [3] has as its target T2, human B7-H4 on the cell surface. The assay can be described thus: FACS, MDA-MB-468 cells. Here is the method: as §1
This is another data set of the same source.

Assay [4] shares this target. Kind of assay: FACS, CHO-K1/hu B7-H4 cells. Here is the method:
(§2) This example is intended to investigate the in vitro binding activity of the CD3 bispecific antibodies of B7-H4 for human, cynomolgus monkey, and mouse B7-H4. Antibody binding experiments at the cellular level were conducted using a CHO-K1 cell strain overexpressing human B7-H4 (CHO-K1/huB7-H4, Harbour BioMed), a CHO-K1 cell strain overexpressing cynomolgus monkey B7-H4 (CHO-K1/cynoB7-H4, Harbour BioMed), and a CHO-K1 cell strain overexpressing mouse B7-H4 (CHO-K1/mB7-H4, Harbour BioMed). Briefly, cells were digested and resuspended in PBS containing 2% FBS, and the cell density was adjusted to 1×10⁶ cells/mL. The cells were seeded in a 96-well V-bottom plate (Corning, Cat #3894) at 100 μL/well, followed by the addition of test antibodies 3-fold serially diluted at a concentration that was 2 times the final concentration, each at 100 μL/well. The cells were incubated away from light at 4° C. for 2 h. Then, the cells in each well were rinsed twice with 100 μL of pre-cooled PBS and centrifuged at 500 g at 4° C. for 5 min, and then the supernatant was discarded. […] The cells in each well were then rinsed twice with 100 μL of pre-cooled PBS and centrifuged at 500 g at 4° C. for 5 min, and then the supernatant was discarded. Finally, the cells in each well were resuspended in 200 μL of pre-cooled PBS, and the fluorescence signal values were read using ACEA Novocyte3000.

For assay [5], the target named is T3, cynomolgus monkey B7-H4 on the cell surface (cynomolgus monkey, UniProt A0A2K5U6P5 25-282).
T3 construct: whole, on cells; also called cyno B7-H4; CHO-K1/cynoB7-H4
T3 sequence: T2 sequence (looked up) with L53I, F242L, S252A
The assay can be described thus: FACS, CHO-K1/cyno B7-H4 cells. Here is the method:
as §2

In assay [6] the target is T4, human B7-H4 (protein in solution, BLI) (human, UniProt Q7Z7D3 25-258, limits assumed).
T4 sequence (looked up): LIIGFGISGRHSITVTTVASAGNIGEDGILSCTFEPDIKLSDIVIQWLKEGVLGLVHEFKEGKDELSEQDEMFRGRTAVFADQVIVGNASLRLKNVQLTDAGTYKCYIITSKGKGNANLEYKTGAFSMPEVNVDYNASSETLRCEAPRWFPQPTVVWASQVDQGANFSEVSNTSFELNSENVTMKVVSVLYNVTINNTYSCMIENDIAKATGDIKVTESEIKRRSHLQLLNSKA
The assay can be described thus: BLI (Octet), antibody captured on AHC sensor, antigen in solution. The method, then: The binding kinetics between the antigen and the antibody was analyzed by the biolayer interferometry (BLI) technique using an Octet Red 96e molecular interaction analyzer (Fortebio).
When the affinity of the antigen for the antibody was determined, the rotation speed of the sensor was set at 1000 rpm/min. […] Finally, the AHC sensor was immersed in a 10 mM glycine-hydrochloric acid solution at pH 1.5 for regeneration to elute the proteins bound to the sensor.
When data analysis was performed using Octet Data Analysis software (Fortebio, version 11.0), 0 nM was taken as a reference well, and reference subtraction was performed; the “1:1 Global fitting” method was selected to fit the data, and the kinetics parameters of the binding of antigens to antigen-binding proteins were calculated, with kₒₙ(1/Ms) values, kdis(1/s) values, and KD(M) values obtained (see Table 3 and FIG. 2).
Background: Biolayer interferometry detects binding as a change in optical thickness at a sensor tip.

Assay [7] has as its target T1, mouse B7-H4 on the cell surface. Kind of assay: FACS, CHO-K1/m B7-H4 cells. Here is the method:
as §2
This is another data set of the same source.

B1: PR006391 (bispecific antibody, human IgG1, lambda)
light: QAVVTQEPSLTVSPGGTVTLTCRSSTGAVTTSNYANWVQQKPGQAPRGLIGGTNKRAPWTPARFSGSLLGDKAALTLLGAQPEDEAEYFCALWYSNLWVFGGGTKLTVLGQPKAAPSVTLFPPSSEELQANKATLVCLISDFYPGAVTVAWKADSSPVKAGVETTTPSKQSNNKYAASSYLSLTPEQWKSHRSYSCQVTHEGSTVEKTVAPTECS
heavy: EVQLVESGGGLVQPGGSLKLSCAASGFTFSTYAMNWVRQASGKGLEWVGRIRSKYNNYATYYADSVKDRFTISRDDSKNTAYLQMNSLKTEDTAVYYCTRHGNFGNSYVSWFAYWGQGTLVTVSSASTKGPSVFPLAPSSKSTSGGTAALGCLVKDYFPEPVTVSWNSGALTSGVHTFPAVLQSSGLYSLSSVVTVPSSSLGTQTYICNVNHKPSNTKVDKKVEPKSCDKTHTCPPCPAPEAAGAPSVFLFPPKPKDTLMISRTPEVTCVVVDVSHEDPEVKFNWYVDGVEVHNAKTKPREEQYNSTYRVVSVLTVLHQDWLNGKEYKCKVSNKALPAPIEKTISKAKGQPREPQVYTLPPCREEMTKNQVSLWCLVKGFYPSDIAVEWESNGQPENNYKTTPPVLDSDGSFFLYSKLTVDKSRWQQGNVFSCSVMHEALHNHYTQKSLSLSPGK
chain: EVQLVESGGGLVQPGGSLRLSCAASGFAFSNYWMHWARQVPGKGRVWISRISGDSRSTSYADSVKGRFTISRDNAKNMVYLQMNNLRAEDTAVYYCARDRFGDDYYYGMNVWGQGTTVTVSSGGGGSGGGGSGGGGSEVQLVESGGGLVQPGGSLRLSCAASGFAFSNYWMHWARQVPGKGRVWISRISGDSRSTSYADSVKGRFTISRDNAKNMVYLQMNNLRAEDTAVYYCARDRFGDDYYYGMNVWGQGTTVTVSSASEPKSSDKTHTCPPCPAPEAAGAPSVFLFPPKPKDTLMISRTPEVTCVVVDVSHEDPEVKFNWYVDGVEVHNAKTKPREEQYNSTYRVVSVLTVLHQDWLNGKEYKCKVSNKALPAPIEKTISKAKGQPREPQVCTLPPSREEMTKNQVSLSCAVKGFYPSDIAVEWESNGQPENNYKTTPPVLDSDGSFFLVSKLTVDKSRWQQGNVFSCSVMHEALHNHYTQKSLSLSPGK
notes: also called B7-H4xCD3 bispecific antibody; PR003886 Fab + bivalent PR007440
The EC50 is the concentration giving half of the maximal effect. By Kd is commonly meant the concentration at which binding is half-saturated. One may read the koff as a measure of how fast the partners let go of each other. By kon is commonly meant the second-order rate constant of association. For B1, the binding result in assay [1] is listed as “no binding”. The EC50 in assay [2] came out at 19.1 nM; in assay [3] it was 15.8 nM; in assay [4], 3.54 nM; in assay [5], 3.79 nM. In assay [6], this molecule displayed a Kd of 3.75 nM. In addition, in assay [6], the koff stood at 0.000339 s⁻¹. In assay [6], this molecule registered a kon of 90400 M⁻¹ s⁻¹.

B2: PR005885 (bispecific antibody, human IgG1, lambda)
light: B1 light
heavy: B1 heavy
scFv: EIVMTQSPASLSVSPGERATLSCRASQSVSSNLAWYQQKPGQAPRLLIYGASTRATGIPARVSGGGSGTEFTLTISSLQSEDFAVYYCQQYKNWPFTFGPGTKLEIKGGGGSGGGGSGGGGSGGGGSQVQLVQSGAEVKKPGSSMRVSCKASEDTFSSYAISWVRQAPGQGLEWMGGTAPIFGTTNYAQKFQGRVTITADKSTSTAYMELSSLRSEDTAVYYCARGGPYFDYWGQGTLVTVSSASEPKSSDKTHTCPPCPAPEAAGAPSVFLFPPKPKDTLMISRTPEVTCVVVDVSHEDPEVKFNWYVDGVEVHNAKTKPREEQYNSTYRVVSVLTVLHQDWLNGKEYKCKVSNKALPAPIEKTISKAKGQPREPQVCTLPPSREEMTKNQVSLSCAVKGFYPSDIAVEWESNGQPENNYKTTPPVLDSDGSFFLVSKLTVDKSRWQQGNVFSCSVMHEALHNHYTQKSLSLSPGK
notes: Chain-3 is the VL-linker-VH scFv of anti-B7-H4 antibody PR003366 fused to hinge-CH2-CH3 (hole); also called B7-H4xCD3 bispecific antibody; 1+1 Fab-Fc-scFv
B2: the EC50 came to 92.6 nM in assay [3], 37 nM in assay [7], 4.79 nM in assay [4] and 5.92 nM in assay [5].
